Assay results taken from the nanobody polyreactivity screen of Harvey et al. (2022).

Assay: yeast display, Sf9 membrane polyspecificity reagent, FACS + sequencing; frameworks hold sequencing errors
Method in brief: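 Nanobodies from a synthetic yeast display library (Saccharomyces cerevisiae BJ5465), induced 36–48 hours with galactose, were stained 1 hour at 4 °C with 10% biotinylated, detergent-solubilized Sf9 membrane reagent, enriched on streptavidin microbeads, then FACS-sorted. Anti-HA (expression) and streptavidin (reagent binding) fluorescence set low and high (top ~1%) gates. Polyreactivity labels come from the gate of origin. Genes were colony-PCR amplified, MiSeq 2 × 250 sequenced and filtered by CDR length.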

Row | Sequence | polyreactivity (PSR sort gate)
1 | QVQLVESGGGLVQAGGSLRLSCAASGSTFAQNAMGWYRQAPGKERELVAAISRRGTITNYADSVKGRFTISRDNAKNTVYLQMNSLKPEDTAVYYCAKEGTWTGGSDNYWGQGTQVTVSS | high polyreactivity
2 | QVQLVESGGGLVQAGGSLRLSCAASGRIFYRNTMGWYRQAPGKERELVAAITRSGGITNYADSVKGRFTISRDNAKNTVYLQMNSLKPEDTAVYYCNAAYLYSASRGVYRYRGDYWGQGTQVTVSS | high polyreactivity
3 | QVQLVESGGGLVQAGGSLRLSCAASGSTFYNNAMGWYRQAPGKERELVAAITSSVGSTHYADSVKGRFTISRDNAKNTVYLQMNSLKPEDSAVYYCNARGRLYGHLYDYWGQGTQVTVSS | low polyreactivity
4 | QVQLVESGGGLVQAGGSLRLSCAASGRTFYYARGWYRQAPGKERELVAAITSSSSTYSADSVKGRFTISRDNAKNTVYLQMNSLKPEDTAVYYCNAADDPYGSPSYGYDYWGQGTQVTVSS | low polyreactivity
5 | QVQLVESGGGLVQAGGSLRLSCAASGSIFWYYAMGWYRQAPGKERELVASISRRGGSTYYADSVKGRFTISRDNAKNTVYLQMNSLKPEDTAVYYCAAYSRTTCSTVQGTYDYWGQGTQVTVSA | low polyreactivity
6 | QVQLVESGGGLVQAGGSLRLSCAASGGISAFNSMGWYRQAPGKERELVAAINYRGGTTYYADSVKGRFTISRDNAKNTVYLQMNSLKPEDTAVYYCNKPYYSSTYYYWGQGTQVTVSS | low polyreactivity
7 | QVQLVESGGGLVQAGGSLRLSCPASGFTFGRYGMGWYRQAPGKERELVAGITWSGGSTSYADSVKGRFTISRDNAKNTVYLQMYSLIPEDTAVYYCATRARYTRVHGRRYAYDYWGQGTQVTVSS | high polyreactivity
8 | QVQLVESRGGLVQAGGSLRLICAASGRIFGRNAMGWYRQAPGKERELVAAISKRGGSTSYADSVKGRFTISRDNAKNTVYLQMNSLKPEDTAVYYCATSAPLVTSSGYGYWGQGTQVTVSS | high polyreactivity
9 | QVQLLESGGGIVQAGGSLRLSCAASGRTFYVYGMGWYRQAPGKERELVAAISKRGDNTYYADAVKGRFTISRDNAKNTVYLQMNSLKPEDTAVYYCNVKLYGGRSDYWGQGTQVTVSS | high polyreactivity
10 | QVQLVESGGGLVQAGGSLRLSCAASGITFGNYAMGWYRQAPGKERELVAAISQSSGRTYYADSVKGRFTISRDNAKNTVYLQMNSLKPEDTAVYYCAARTRGSSRGDYDYWGQGTQVTVSS | high polyreactivity
11 | QVQLVESGGGLVQAGGSLRLSCAASGFTFYRNAMGWYRQAPGKERELVARISRRGGITSYADSVKGRFTISRDNAKNTVYLQMNSLKTEDTAVYYCKAEKRGQSYRFDYWGQGTQVTVSS | high polyreactivity
12 | QVQLVESGGGLVQAGGSLRLSCAASGSIFRSYAMGWYRQAPGKERELDAAISRRGSSTYYADSVKGRFTISRDIAKNTVYLQMISLKPEDSAVYYCNRVRYPRVDYWGQGTQVTVSS | high polyreactivity
13 | QVQLVESGGGLVQAGGSLRLSCAASGSTFKIYAMGWYRQAPGKERELVARITSGGSTNYADSVKGRFTISRDNAKNTVYLQMNSLKPEDTAVYYCAVPWYTRESGAYDYWGQGTQVTVSS | high polyreactivity
14 | QVQLVESGGGLVQAGGSLRLSCAATGRTFSIYAMGWYRQAPGKERELVARIRGGGSTNYADSVKGRFTISRDNAKNTVYLQMNSLKPEDTAVYYCATVYWRYGAHSYRYYYWGQGTQVTVSS | high polyreactivity
15 | QVQLVESGGGLVQAGGSLRLSCAASGSIFGDYAMGWYRQAPGKERELVAAITWSGGSTTYADSVKGRFTISRDNAKNTVYLQMNSLKPEDTAVYCCAVYGWRFYSYDDYFDFNYWGQGTQVTVSS | low polyreactivity
16 | QVQLVESGGGLVQAGGSLRLSCAASGFTFIYYAMGWYRQAPGKERELVAAINRGGNTYYADSVKGRFTISRDNAKNTVYLQMNSLKPEDTAVYYCNARSYRRGHYYWGQGTQVTVSS | high polyreactivity
17 | QVQLVESGGGLVQAGGSLRLSCAASGSIFTHNAMGWYRPAPGKERELVAAISSGGSTYYADSVKGRFTISRDNAKNTVYLQMNSLKPEDTAVYYCAVRQGWYHFRYDYWGQGTQVTVSS | high polyreactivity
18 | QVQLVESGGGLVQAGGSLRLSCAASGRTFIYYAMGWYRQAPGKERELVAGITYSVGSTYYADSVKGRFTISRDNEKNTVYLQMNSLKPEDTAVYFCAADATFESDWGQGTQVTVSS | low polyreactivity
19 | QVQLVESGGGLVQAGASLRLSCAASGIIVTQYAMGWYRQAPGKESEIVATFSSGGARTYYADSVKGRFTISRDNAKNTVYLQMKSQKPEDTAVYYCDARRYRGYSPPYDYCGQGTQVTVSS | high polyreactivity
20 | QVQLVESGGGLVQAGGSLRLSCAASGSTFAYNDMGWYRQAPWKERDLVADIRSGGNTNYADSVKGRFTISRDNAKNTVYLQMNILKPEDTAVYYCASDGYRIDVYHPDYRYDYWGQGTQVTVSS | low polyreactivity
21 | QVQLVESGGGLVQAGGSLRLSCAASGIIFFRYAMGWYRQAPGKERELVAGISGSGGSTYYADSVKGRFTISRDNAKNTVYLQMNSLKPEDTAVYYCAKQWKSNIYYQGGYWGQGTQVTVSS | high polyreactivity
22 | QVQHVESGGGLVQAGGSLRLSCAATGRTFRHYAMGWYRLAPGKERELVAAISGSGGRTYYADSVKGRFTISRDNAKNTVYLQMISLKPEDTAVYYCNAYTWTYGEYEYWGQGTQVTVSS | high polyreactivity

Row | Sequence | polyreactivity (PSR sort gate)
23 | QVQLVESGGGLVQAGGSLRLSCAASGRIFSLYAMGWYRPAPGKERELVAAITWRGGGTYYADSVKGRITISRDNAKNTVFLQMNSLKPEDTAVYYCAAEVKHIFYGYWGQGTQVTVSS | high polyreactivity
24 | PVQLVESGGGIVQAGGSLRLSCAASGRTFRYNPMGWSRQAPGKERELVAAITYSGGSTYYADSVKGRFTISRDNEKNTVYLQMNSMKPEETAVYYCAAGWRRFDYWGQGTQVTVSS | high polyreactivity
25 | QLQLVDSGRGLVQAGGSLRLSSAASGSIFVTNGMGWYRQAPGKERELVAVISWGGGNTYYADSVKGRFTISRDNAKNTVYLQMNNLKPEDTAVYYCAVELYWDYYFTYDYWGQGTQVTVSS | low polyreactivity
26 | QVQLVESGGGLVLAGGSLRLSCAASGLILPYYTMGWYREAPGKERELVAAIRRTTGSTFYADSVKGRFTISRDNAKNTVYLQMNSLKPEDTAVYYCNVRRTPYRHWTGGGMDYWGQGTQVTVSS | high polyreactivity
27 | QVQLVESGGGLVQAGGSLRLSCAASGFTFGYYVMGWYRQEPGKERELVAAITVSGASTYYADSVKGRFTISRDNAKNTVYLQMNSLKPEDTAVYYCAKRGYFPALRQSYYYWGQGTQVTVSS | high polyreactivity
28 | QVQLVESGGGLVQAGGSLRISCAASGRTFAFYAMGRYRQAPGKERELVACISSSGDRTYYADSVKGRFTISRDNAKNTVYLQMNSLKPEDTAVYYCAARWRYTYYYWGQGTQVTVSS | high polyreactivity
29 | QVQLVESGGGLVQAGGSLRLSCAASGYILRPYSKVWYRQSPGKERELLASISRSSGNTFYADSVKGRFTISRDNAKNSVYLEMNSLKPDDSAVYYCAKDRSQRDLVYFPRVIYRMDYWGQGTQVNVSS | high polyreactivity
30 | QVQLVESGGGLVQAGGSLRLSCAASGFIFTQYAMGWYRPAPGKEWELVAAITRSGGRTYYADSVKGRFTISRDNAKNTVYIQMNSLKPEDTAVYYCAVDTVTRTVLVYGDRNDSWGQGTQVTVSS | high polyreactivity
31 | QVQLVESGGGLVQAGGSLRLSCAASGYTYRYYAMGWYRQAPGKERELVAAISASGGITYYADSVKGRFTISRDNAKNTVDLQMNCLNPEDTAVYYCATTGWGSWFDPYDYWGQGTQVTVSS | high polyreactivity
32 | QVQLVESGGGLVQAGGSLRLSCAASGSTFYRYAIRWYRQAPGKERELVAAISKRGGSTYYADSVKGRFTISRDNAKNTVYLQMNSLKPEDTAVYYCAADPFHYGGGDDYWGQGTQVTVSS | high polyreactivity
33 | QVQLVESGGGLVQAGGSLRLSCAASGFTFKYYAMGWYRQAPGKERELVARISWSGGSTYYADSVKGRFTISRDNAKNTVYLQMNSLKPEDTAVYYCAAKLYSKRTGARMNYWGQGTQVTVSS | high polyreactivity
34 | QVQLVESGGGLVQAGGSLRLSCAASGIIFGYYAMGWYRQAPGKERELVAAISKRGGSTNYADSVKGRFTISRDNAKNTVYLQMNSLKPEDTAVYYCAARYPQGGTGKATYVRSRSGYWGQGTQVTVSS | high polyreactivity
35 | QVQLVESGGGLVQAGGSLRLSCAASGSTFQHYAMGWYRQAPGKERELVAAITNTGGSTYYADSVKGRFTISRDNAKNTVYLQMNSLKPEDTAVYYCATVGRRYGYPGYYWGQGTQVTVSS | low polyreactivity
36 | QVQLVESGGGLVQAGGSLRLSCAASGSTFKRNAMGWYRQAPGKDRELVAAISFRGGSTYYADSVKGRFTISRDNAKNTVYLQMNSLKPEDTAVYYCAAGIYRIRGGGISFDYWGQGTQVTVSS | high polyreactivity
37 | QVQLVESGGGLVQAGGSLRLSCAASGFIFSRYTMGWYRQAPGKERELVAAISRRGGNTYYADSVKGRFTISRDNGKNTVYLLMNSLKPEDTAVYYFAADSSYFKDEYWGQGTQVTVSS | low polyreactivity
38 | QVQLVESGGGLVQAGGSLRLSCAASGITFSVYTMGWYIQAPGKERELVAAIDSDGITNYADSVKGRFTISRDNEKNNVYLQMNSLKPEDTAVSYCAKQTGRADGVSGFDYWGQGTQVTVSS | low polyreactivity
39 | QVQLVESGGGLVQAGGSLRLSCAASGSIFRYYDMGWYRQAPGKERELVAAITYSGGGTYYADSLKGRFTISRDNAKNTVYLQMNSLKPEDTAVYYCAAEPYYGWQRLDYWGQGTQVTVSS | low polyreactivity
40 | PVQLVESGGGLVQAGGSLRLSCAASGFTFDRYAMGWYRQAPGKERELVAAISRSGATTYYADSVKGRFTISRDNAKNTVYLQMNSLKPEDTAVYYCNADDVWYEYDYWGQGTQVTVSS | high polyreactivity
41 | QVQLVESGGGLVQAGGSLRLSCAASGATLVWNTMGWCRQAPGTERELVAGITSGGSTKYADSVKGRFTISRDNAKNTVYLQMKRLKPEDTAVYYCAADCYGQAIFIYDYWGQGTQVTVSS | low polyreactivity
42 | QVQLQESGGGLVQAGGSLRLSCAASGNIFLGDTMGWYRQAPGKEREFVAGIARGGNPYYADSVKGRFTISRNNAKNTVYLQKNSLKAEDTAVHYCAVQRSHASDYNYWGQGTQVTVSS | low polyreactivity
43 | QVQLVESAGGLVQAGGSLRLSCAASGSIFVPNVMGWYRQAPGKERELVATITRSTSTYYADSVKGRFTISRDNAKNTVYLQMNSLKPEDTAVYYCAAVWEWYSKYTRFYYWGQGTQVTVSS | high polyreactivity
